Test results from patent publication US12655441B2, “PPO polypeptides tolerant to PPO-inhibiting herbicides and use thereof” (QINGDAO KINGAGROOT CHEMICAL COMPOUND CO., LTD., priority 2021, dated 2026).
Where a chain is given by its changes, count along the chain named. Numbers in names are those of the source.

B1: L424T/Y426V (protein)
chain: MVAATATATAMATAASPLLNGTRIPARLRHRGLSVRCAAVAGGAAEAPASTGARLSADCVVVGGGISGLCTAQALATRHGVGDVLVTEARARPGGNITTVERPEEGYLWEEGPNSFQPSDPVLTMAVDSGLKDDLVFGDPNAPRFVLWEGKLRPVPSKPADLPFFDLMSIPGKLRAGLGALGIRPPPPGREESVEEFVRRNLGAEVFERLIEPFCSGVYAGDPSKLSMKAAFGKVWRLEETGGSIIGGTIKTIQERSKNPKPPRDARLPKPKGQTVASFRKGLAMLPNAITSSLGSKVKLLWKLTSITKSDDKGYVLEYETPEGVVSVQAKSVIMTIPSYVASNILRPLSSDAADALSRFYYPPVAAVTVSYPKEAIRKECLIDGELQGFGQLHPRSQGVETLGTIYSSSLFPNRAPDGRVLLTNVIGGATNTGIVSKTESELVEAVDRDLRKMLINSTAVDPLVLGVRVWPQAIPQFLVGHLDLLEAAKAALDRGGYDGLFLGGNYVAGVALGRCVEGAYESASQISDFLTKYAYK
modifications: Amino-acid sequence of PPO1 from corn mutant (ZmPPO1 L424T/Y426V)
B2: ZmPPO1 L424W/Y426L: Amino-acid sequence of PPO1 from corn mutant (protein)
chain: B1 chain with T424W, V426L
modifications: Amino-acid sequence of PPO1 from corn mutant (ZmPPO1 L424W/Y426L)
B3: L424V/Y426L (protein)
chain: B1 chain with T424V, V426L
modifications: Amino-acid sequence of PPO1 from corn mutant (ZmPPO1 L424V/Y426L)
B4: L424S/Y426V (protein)
chain: B1 chain with T424S
modifications: Amino-acid sequence of PPO1 form corn mutant (ZmPPO1 L424S/Y426V)
B5: BnPPO1-C5 WT: Amino-acid sequence of PPO1 wild-type from oilseed rape (protein)
chain: MDLSLLRPQPFLSPFSNPFPRSRPYKPPNLRCSVSGGSVVGGSSTIEGGRGGKTVAADCVIVGGGISGLCIAQALVTKHPDAAKSVMVTEAKDRVGGNIITREEQGFLWEEGPNSFQPSDPMLTMVVDSGLKDDLVLGDPTAPRFVLWNGKLRPVPSKLTDLPFFDLMSIGGKIRAGFGAIGIRPSPPGREESVEEFVRRNLGDEVFERLIEPFCSGVYAGDPAKLSMKAAFGKVWKLEENGGSIIGGAFKAIQARNKAPKTTRDPRLPKPKGQTVGSFRKGLTMLPDAISARLGDKVKVSWKLSSISKLPSGGYSLTYETPEGIVTVQSKSVVMTVPSHVASSLLRPLSDSAAEALSKLYYPPVAAVSISYPKEAIRSECLIDGELKGFGQLHPRTQKVETLGTIYSSSLFPNRAPPGRVLLLNYIGGATNTGILSKSEGELVEAVDRDLRKMLIKPSSTDPLVLGVKVWPQAIPQFLIGHIDLVDAAKASLSSSGHEGLFLGGNYVAGVALGRCVEGAYETATQVNDFMSRYAYK
modifications: Amino-acid sequence of PPO1 wild-type from oilseed rape (BnPPO1-C5)
B6: BnPPO1-C5 L424S/Y426I: Amino-acid sequence of PPO1 from oilseed rape mutant (protein)
chain: B5 chain with L424S, Y426I
modifications: Amino-acid sequence of PPO1 from oilseed rape mutant (BnPPO1-C5 L424S/Y426I)
B7: ZmPPO1 WT: Amino-acid sequence of PPO1 from wild-type corn (protein)
chain: B1 chain with T424L, V426Y
modifications: Amino-acid sequence of PPO1 from wild-type corn (ZmPPO1 WT)
B8: GmPPO1 WT: Amino-acid sequence of PPO1 from wild-type soybean (protein)
chain: MVSVFNEILFPPNQTLLRPSLHSPTSFFTSPTRKFPRSRPNPILRCSIAEESTASPPKTRDSAPVDCVVVGGGVSGLCIAQALATKHANANVVVTEARDRVGGNITTMERDGYLWEEGPNSFQPSDPMLTMVVDSGLKDELVLGDPDAPRFVLWNRKLRPVPGKLTDLPFFDLMSIGGKIRAGFGALGIRPPPPGHEESVEEFVRRNLGDEVFERLIEPFCSGVYAGDPSKLSMKAAFGKVWKLEKNGGSIIGGTFKAIQERNGASKPPRDPRLPKPKGQTVGSFRKGLTMLPDAISARLGNKVKLSWKLSSISKLDSGEYSLTYETPEGVVSLQCKTVVLTIPSYVASTLLRPLSAAAADALSKFYYPPVAAVSISYPKEAIRSECLIDGELKGFGQLHPRSQGVETLGTIYSSSLFPNRAPPGRVLLLNYIGGATNTGILSKTDSELVETVDRDLRKILINPNAQDPFVVGVRLWPQAIPQFLVGHLDLLDVAKASIRNTGFEGLFLGGNYVSGVALGRCVEGAYEVAAEVNDFLTNRVYK
modifications: Amino-acid sequence of PPO1 from wild-type soybean (GmPPO1)
B9: GmPPO1 L430S/Y432I: Amino-acid sequence of PPO1 from soybean mutant (protein)
chain: B8 chain with L430S, Y432I
modifications: Amino-acid sequence of PPO1 from soybean mutant (GmPPO1 L430S/Y432I)
B10: L423I (protein)
chain: MAAAAAAMATATSATAAPPLRIRDAARRTRRRGHVRCAVASGAAEAPAAPGARVSADCVVVGGGISGLCTAQALATKHGVGDVLVTEARARPGGNITTAERAGEGYLWEEGPNSFQPSDPVLTMAVDSGLKDDLVFGDPNAPRFVLWEGKLRPVPSKPGDLPFFDLMSIPGKLRAGLGALGVRAPPPGREESVEDFVRRNLGAEVFERLIEPFCSGVYAGDPSKLSMKAAFGKVWRLEDTGGSIIGGTIKTIQERGKNPKPPRDPRLPTPKGQTVASFRKGLTMLPDAITSRLGSKVKLSWKLTSITKSDNKGYALVYETPEGVVSVQAKTVVMTIPSYVASDILRPLSSDAADALSIFYYPPVAAVTVSYPKEAIRKECLIDGELQGFGQLHPRSQGVETLGTIYSSSLFPNRAPAGRVLLINYIGGSTNTGIVSKTESELVEAVDRDLRKMLINPKAVDPLVLGVRVWPQAIPQFLIGHLDHLEAAKSALGKGGYDGLFLGGNYVAGVALGRCVEGAYESASQISDYLTKYAYK
modifications: Amino-acid sequence of PPO1 from rice mutant (OsPPO1 L423I)

These molecules were tested on PPO-deficient Escherichia coli (ΔhemG) (assay: PPO-deficient E. coli (ΔhemG) transformed by corn ZmPPO1 mutant genes, growth on LB medium containing compound A). Conditions: compound A 5 μM.
Assay type: cell-based
Protocol: To verify whether the mutation of the PPO1-conserved protein motif LLLNYI in other plants could also confer resistance to herbicides, the mutation combination of leucine residues at the third position and tyrosine residues at the fifth position in the protein motif LLLNYI was carried out by using the same method as described in the above examples and screened by using of the LB medium containing herbicidal compound A, and the growth inhibition was observed.

Row | Molecule | growth of ΔhemG transformant on plates containing compound A, compared with ZmPPO1-WT
1 | B1 | grew normally without an inhibition
2 | B2 | grew normally without an inhibition
3 | B3 | grew normally without an inhibition
4 | B4 | grew normally without an inhibition

Each molecule was assayed on Arabidopsis thaliana (assay: Herbicide resistance test of Arabidopsis thaliana seeds overexpressing crop PPO1 WT or mutant on MS medium). Conditions: overexpressed in Arabidopsis thaliana seed, different concentrations of compound A.
Assay type: in vivo
Protocol: 1) Sowing: plump and vernalized wild-type Arabidopsis thaliana seeds were selected, treated with 75% alcohol for 1 minute, disinfected with 10% NaClO for 6 minutes, and washed with sterile water for 5 to 6 times. After the sterilization was completed, the seeds were placed on a MS medium plate for one week, then transplanted to sterilized nutrient soil (nutrient soil:vermiculite=1:1) and cultured in a greenhouse at (25±2) ° C. with a photoperiod of 16 h/8 h (light/dark).
4) Infestation of Arabidopsis thaliana inflorescences: the uninfected Arabidopsis thaliana with good growth state and lush inflorescences were selected for infection and their fruit pods were cut off from the plants by scissors prior to transformation. The Arabidopsis thaliana inflorescences were dipped in the prepared infection solution for 0.5 to 1 minute. Then the infected Arabidopsis thaliana seedlings were placed in dark and humid conditions for 24 hours. After one week, the infection was repeated.
After the transformation of dipped Arabidopsis thaliana inflorescences, Arabidopsis thaliana TO-generation seeds were collected and sowed on a resistant MS plate containing 30 mg/L hygromycin to screen positive plants.
The obtained overexpressed mutant and wild-type Arabidopsis thaliana seeds of different crops were tested for resistance on a MS medium (petri dish) containing different concentrations of PPO-inhibiting herbicidal compounds, as shown in FIG. 12-23.

Row | Molecule | tolerance to compound A compared with wild-type Arabidopsis thaliana | tolerance to compound A compared with the overexpressed wild-type PPO1
5 | B5 | certain level of tolerance | 
6 | B6 | certain level of tolerance | much higher
7 | B2 | certain level of tolerance | much higher
8 | B7 | certain level of tolerance | 
9 | B8 | certain level of tolerance | 
10 | B9 | certain level of tolerance | much higher

Same assay, conditions: overexpressed in Arabidopsis thaliana seed, different concentrations of flumioxazin

Row | Molecule | tolerance to flumioxazin compared with wild-type Arabidopsis thaliana | tolerance to flumioxazin compared with the overexpressed wild-type PPO1
11 | B5 | certain level of tolerance | 
12 | B6 | certain level of tolerance | much higher
13 | B2 | certain level of tolerance | much higher
14 | B7 | certain level of tolerance | 
15 | B8 | certain level of tolerance | 
16 | B9 | certain level of tolerance | much higher

Same assay, conditions: overexpressed in Arabidopsis thaliana seed, different concentrations of saflufenacil

Row | Molecule | tolerance to saflufenacil compared with wild-type Arabidopsis thaliana | tolerance to saflufenacil compared with the overexpressed wild-type PPO1
17 | B5 | certain level of tolerance | 
18 | B6 | certain level of tolerance | much higher
19 | B2 | certain level of tolerance | much higher
20 | B7 | certain level of tolerance | 
21 | B8 | certain level of tolerance | 
22 | B9 | certain level of tolerance | much higher

Each molecule was assayed on PPO-deficient Escherichia coli (ΔhemG) (assay: PPO-deficient E. coli (ΔhemG) transformed by rice OsPPO1 mutant genes, growth on LB medium containing herbicide). Conditions: 500 nM compound A.

Row | Molecule | growth of ΔhemG transformant on LB medium containing compound A, compared with the wild type
23 | B10 | grew normally
